Here are results for 1 molecule from article PMC5444744, “Interaction between granulin A and enolase 1 attenuates the migration and invasion of human hepatoma cells” (Oncotarget, 2017).

The target in the assay is T1, ENO1 (bought, ATGen #ATGP0404) (UniProt P06733 1-434).
T1 construct: ENO1 (α-enolase), bought protein, ATGen #ATGP0404; also called α-enolase; source: bought: ATGen (#ATGP0404)
The assay can be described thus: SPR; ENO1 immobilised directly on CM5 chip (8171 RU, 10 mM sodium acetate pH 5.0); GRN A 3.5-112.0 μM in HBS-EP (10 mM HEPES, 150 mM NaCl, 3 mM EDTA, 0.05% P20) at 30 μL/min; BIACORE T200; KD = Koff/Kon. The settings on record: both partners purified.

T1 sequence (P06733 whole entry): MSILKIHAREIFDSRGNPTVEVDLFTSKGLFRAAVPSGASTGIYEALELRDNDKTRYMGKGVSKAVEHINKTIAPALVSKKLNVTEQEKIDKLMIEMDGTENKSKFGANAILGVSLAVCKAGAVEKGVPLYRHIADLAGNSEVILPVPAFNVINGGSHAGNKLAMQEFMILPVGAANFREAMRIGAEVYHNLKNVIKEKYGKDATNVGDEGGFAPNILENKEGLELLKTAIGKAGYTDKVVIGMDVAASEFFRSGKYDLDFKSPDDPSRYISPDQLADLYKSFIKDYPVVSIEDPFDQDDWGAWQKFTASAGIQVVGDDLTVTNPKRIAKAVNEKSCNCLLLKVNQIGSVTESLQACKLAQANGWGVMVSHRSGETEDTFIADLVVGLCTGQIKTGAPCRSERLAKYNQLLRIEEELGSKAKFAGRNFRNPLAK

B1: Granulin A (His-GRN A) (peptide, UniProt P28799 281-336, looked up)
chain: DVKCDMEVSCPDGYTCCRLQSGAWGCCPFTQAVCCEDHIHCCPAGFTCDTQKGTCE
notes: granulin A (GRN A), a peptide of about 6 kDa with 12 cysteine residues, derived from proteolysis of progranulin (PGRN); The source and limits of the His-tagged GRN A are not described; The SPR methods call the analyte only 'GRN A'
With B1, binding was put at a Kd of 56 µM.
